Experimental data as given in article PMC9430723.

Experiments:
[1] = target: T1, AlkX (Rv3249c), TetR family regulator (Mycobacterium tuberculosis) (UniProt O05892); test: EMSA
T1 sequence: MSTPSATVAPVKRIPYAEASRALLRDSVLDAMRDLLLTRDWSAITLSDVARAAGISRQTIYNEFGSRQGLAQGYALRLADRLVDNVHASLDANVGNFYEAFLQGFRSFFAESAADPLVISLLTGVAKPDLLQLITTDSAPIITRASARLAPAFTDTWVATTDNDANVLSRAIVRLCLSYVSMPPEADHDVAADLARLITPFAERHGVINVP

[2] = target: T1, AlkX (Rv3249c), TetR family regulator (Mycobacterium tuberculosis); test: competition

Sequence | binding [1] | binding [2]
CGGCGATTGACTGTTCTACCGACTTCATGCGCCGTCGACCGGCCATGCACCCGTCCTCTCGCACTCGTTGTGACCGCACAGTACTGGGTACTCTGCGAGGATGACGGGTCGCGTAGGGAACCCGAAGGACCACGCCGTGGTGATCGGAGCTAGCATCGCCGGGTTGTGCGCCGCGCGGGTGCTCTCGGACTTCTACTCCA (double strand) [rv3253c promoter probe] | no binding | –
TCGGCAAGCTCGAGAGAGCGCGACCCGGAGGTGTTGAACTAGCTTCGCCGCGTATTTACAAATTGCGTTATATGTCTAGACATAAGACGCAAACTGCTCTATTGTCAAATCCCAACGTGGTGTGGCTCATGAGGAGGTTTGGCATATGACCACGCAAATCGGCTCTGGTGGACCCGAAG (double strand) [rv3252c (alkB) promoter probe] | binds | –
TCGGCAAGCTCGAGAGAGCGCGACCCGGAGGTGTTGAACTAGCTTCGCCGCGTATTTACAAATTGCGTTATATGTCTAGACATAAGACGCAAACTGCTCTATTGTCAAATCCCAACGTGGTGTGGCTCATGAGGAGGTTTGGCATATGACCACGCAAATCGGCTCTGGTGGACCCGAAG (double strand) [unlabeled (cold) rv3252c (alkB) promoter probe] | – | binds
